Results from US20050124794A1, “Cell surface tropomyosin as a target of angiogenesis inhibition” (priority 2002, published 2005).
“And” between values parts separate entries of the source, which are not always exact repeats. Equal entries are not always repeated. “Also recorded” adds a separate entry of the source.

Key:
[1] = tested on: proliferating ECs; assay: Assessment of EC apoptosis (DAPI, TUNEL, DNA cleavage); format: cell-based, human
Method: Assessment of EC apoptosis. The effect of TM-311 on HKa- or HKa D5-induced EC apoptosis was determined using several methods. First, staining of control or HKa exposed ECs using 4′, 6′-diamidino-2-phenylindole dihydrochloride (DAPI) (Molecular Probes, Eugene Oreg.) was employed to highlight apoptosis-associated changes in nuclear morphology. Second, apoptosis was assessed by TUNEL staining, using the Apo-Direct kit (Pharmingen, San Diego, Calif.). Cells were counterstained with propidium iodide to define all nuclei, and the percentage of apoptotic CUNEL positive) nuclei determined by manual counting. Finally, to assess endothelial apoptosis by endonucleolytic cleavage of DNA, EC DNA was isolated and separated using 0.8% agarose gel electrophoresis. Gels were stained with ethidium bromide, and DNA visualized using UV light.

[2] = target: T1, chicken gizzard Tpm (Gallus gallus, UniProt P19352); assay: Binding to immobilized Tpm in a 96 well plate (biotin-HKa competition or direct binding); conditions: plate coated with 200 ng chicken gizzard Tpm, 10 μM ZnCl2
T1 construct: purchased Sigma; host or cells: chicken gizzard (tissue-derived, as the name says)
Method: Plates are coated at room temperature with chicken gizzard Tpm (Sigma) in Tris buffer-saline (TBS) (200 ng/well). After incubation for 2 hours, wells are washed with TBS, then 1% BSA/TBS/Tween-20 is added to each well and incubate at 37° C. for two hours. HKa (Enzyme Laboratories) that had been previously biotinylated with EZ-Link (Pierce) according to the manufacturers instructions, is added to the plate at a concentration of 10 nM together with ZnCl2 (10 μM) and the appropriate concentration of the protein, domain or peptide competitor. The plates are incubated at room temperature and then washed with TBS/Tween-20. Avidin-HRP is added, incubated for 20 minutes at room temperature, washed with TBS/Tween-20 and the chromogenic substrate is added. The reaction is stopped with sulfuric acid and the plate read at 490 nm.
The IC50 for the displacement of biotinylated-HKa for the peptides shown in Table 5 was determined as follows: 10 nM biotin-HKa is added to a 96 well plate previously coated with 200 ng of chicken gizzard Tpm in the presence of 10 μM ZnCl2. Increasing amounts of the peptides are added to the wells. The remaining biotin-HKa bound to Tpm was detected using avidin-HRP and a chromogenic substrate. A Kd was determined by non-linear regression analysis of the empirical data. The effect on the Matrigel Plug assay was determined as follows: Matrigel (0.5 mL) containing 400 ng/ml of bFGF, 50 μg/ml heparin with or without the peptide (300 μM) or saline buffer are injected in the flanks of a mouse. After five days, the plugs are removed and the plugs scanned.
The N-terminus of the pentapeptide HHPHG has been derivatized (capped) in an attempt to increase the pentapeptides' affinity to Tpm by increasing productive molecular contacts (or interactions). […] The IC50 for the displacement of biotinylated-HKa for the capped peptides shown in the table was determined as follows: 10 nM biotin-HKa was added to a 96 well plate previously coated with 200 ng of chicken gizzard Tpm in the presence of 10 μM ZnCl2. Increasing amounts of the peptides were added to the wells. The remaining biotin-HKa bound to Tpm was detected using avidin-HRP and a chromogenic substrate. A Kd was determined by non-linear regression analysis of the empirical data

[3] = tested on: bFGF-induced angiogenesis in the chick chorioallantoic membrane; assay: Chick chorioallantoic membrane (CAM) assay; format: in vivo
Method: This assay is performed essentially as described by Nguyen et al (Microvascular Res. 47:31-40 (1994)). A mesh containing either angiogenic factors (bFGF) or tumor cells plus inhibitors is placed onto the CAM of an 8-day old chick embryo and the CAM observed for 3-9 days after implantation of the sample. Angiogenesis is quantitated by determining the percentage of squares in the mesh which contain blood vessels.
Chick chorioallantoic membrane assay. […] Three day-old fertilized White Leghorn chicken eggs were cracked in sterile Petri dishes. Embryos were cultured at 37° C., under 4% CO2, until day 7, at which time a 3.0 mm filter disc containing either 30 ng bFGF (positive control), 30 ng bFGF and 10 μg HKa or 30 ng bFGF, 10 μg HKa and 20 μg of mAb TM-311 was placed on the CAM. Each experimental condition was tested in at least 6 eggs. On day 10, embryos were photographed using a SPOT digital camera Angiogenesis was quantitated by counting the number of neovessels in direct contact with the filter disc.

[4] = tested on: proliferating ECs; assay: Binding of biotin-HKa to ECs; design: species or system human; conditions: Zn2+-dependent (10 μM Zn2+), nonlinear regression, read-out: Kd of specific binding of HKa to proliferating ECs
Method: Binding of HKa to ECs and purified Tpm. Binding of HKa to ECs was measured as described by Hasan, A A et al. (1995) J. Biol. Chem. 270:19256-19261. Briefly, 3×10^4 HLVEC/ml were cultured in 96-well microplates, then washed and incubated with increasing concentrations of biotin-HKa for two hours, at 4° C. After brief washing, cells were incubated sequentially with a 1:750 dilution of streptavidin peroxidase and the peroxidase substrate, turbo-TMB (Pierce), prior to measurement of A490. Absolute amounts of bound HKa were determined by comparison of A490 values with a standard curve prepared using known amounts of biotin-HKa Binding was measured in the presence (to determine total binding) and absence (to determine non-specific binding) of 10 μM Zn^2+, and specific binding defined as the difference between total and non-specific binding (van Iwaarden, F et al. (1988) J. Biol. Chem. 263:4698-4703). The dissociation constant (Kd) was determined by fitting the saturation isotherm by nonlinear regression using the Prism software program (GraphPad, San Diego, Calif.).
In selected experiments, the ability of mAb TM-311 to inhibit the binding of HKa to cells was assessed by incubating biotin-HKa with ECs in the presence of increasing concentrations of antibody. […]

[5] = tested on: HUVEC; assay: EC proliferation assay (growth factor-induced); format: cell-based, human; conditions: bFGF 10 ng/ml; 20 nM HKa, 60 nM HKa domain 5
Method: EC proliferation assays. The effect of HKa on ECs in the absence or presence of mAb TM-311 was initially assessed using a proliferation assay, as described in Zhang et al., supra. Relative numbers of cells remaining in each well of a 96 well microplate after incubation for 48 hours in the absence or presence of HKa were determined using the Aqueous® cell proliferation assay (Promega, Madison, Wis.). Results are presented as the percent inhibition of bFGF-induced EC proliferation, which essentially reflects the extent of HKa-induced EC apoptosis. Though bFGF was used as the EC mitogen in most studies of the studies described herein, identical results were obtained using VEGF.

[6] = target: T1, chicken gizzard Tpm; assay: Binding of HKa to purified Tpm immobilized in 96 well microplates; conditions: biotin-HKa, Zn2+-dependent (10 μM Zn2+), nonlinear regression; read-out: Kd of binding of HKa to purified Tpm
Method: To measure the binding of HKa to purified Tpm, 96 well microplates were coated with 20 μg/ml of chicken gizzard Tpm (Sigma), or bovine serum albumin (BSA), as a control. Wells were then blocked by incubation with phosphate buffered saline containing 5% nonfat milk, and incubated with increasing concentrations of HKa (0.01-20 nM) for 2 hours. Specifically-bound HKa was quantitated as described for cell binding assays (van Iwaarden et al., supra, and by assessing the ability of a 100-fold molar excess of unlabeled HKa to compete with biotin-HKa for binding.
In selected experiments, the ability of mAb TM-311 and recombinant HKa D5 to inhibit the binding of biotin-HKa to Tpm was assessed. These studies allowed determination of the Kd for binding of HKa D5 to Tpm using the equation: Kd (D5)=IC50/(1+[HKa]/Kd (HKa)) where IC50 is the concentration of HKa D5 that inhibited HKa binding by 50%, and Kd(HKa) is the Kd for binding of HKa to Tpm.

T1 sequence (P19352 1-284 isoform P19352-2): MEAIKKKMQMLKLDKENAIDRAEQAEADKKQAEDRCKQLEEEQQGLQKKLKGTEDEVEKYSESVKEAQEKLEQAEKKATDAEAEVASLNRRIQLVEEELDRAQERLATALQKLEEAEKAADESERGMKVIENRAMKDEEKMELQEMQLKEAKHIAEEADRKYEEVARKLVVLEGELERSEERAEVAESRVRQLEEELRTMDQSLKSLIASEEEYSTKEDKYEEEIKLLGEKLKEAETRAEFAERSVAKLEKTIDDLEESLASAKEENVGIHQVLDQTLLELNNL
T1 sequence (P04268 1-284 isoform P04268-2 F73S/I172L/T199L/N203E/L204A partner): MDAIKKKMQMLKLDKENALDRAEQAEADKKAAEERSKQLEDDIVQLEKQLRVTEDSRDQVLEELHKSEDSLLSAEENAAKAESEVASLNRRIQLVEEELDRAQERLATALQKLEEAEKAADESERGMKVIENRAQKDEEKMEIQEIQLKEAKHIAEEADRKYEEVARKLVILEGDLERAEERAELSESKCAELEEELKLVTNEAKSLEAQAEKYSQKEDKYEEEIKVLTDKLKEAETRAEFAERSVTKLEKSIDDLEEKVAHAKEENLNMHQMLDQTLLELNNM

- Kd [2]: ~1 nM
- Kd [6]: ~2.6 nM and ~2.5 nM
B1: HKa: Two-chain high molecular weight kininogen, purchased from Enzyme Research Laboratories (protein)
chain 1: QESQSEEIDCNDKDLFKAVDAALKKYNSQNQSNNQFVLYRITEATKTVGSDTFYSFKYEIKEGDCPVQSGKTWQDCEYKDAAKAATGECTATVGKRSSTKFSVATQTCQITPAEGPVVTAQYDCLGCVHPISTQSPDLEPILRHGIQYFNNNTQHSSLFMLNEVKRAQRQVVAGLNFRITYSIVQTNCSKENFLFLTPDCKSLWNGDTGECTDNAYIDIQLRIASFSQNCDIYPGKDFVQPPTKICVGCPRDIPTNSPELEETLTHTITKLNAENNATFYFKIDNVKKARVQVVAGKKYFIDFVARETTCSKESNEELTESCETKKLGQSLDCNAEVYVVPWEKKIYPTVNCQPLGMISLMK
chain 2: SSRIGEIKEETTVSPPHTSMAPAQDEERDSGKEQGHTRRHDWGHEKQRKHNLGHGHKHERDQGHGHQRGHGLGHGHEQQHGLGHGHKFKLDDDLEHQGGHVLDHGHKHKHGHGHGKHKNKGKKNGKHNGWKTEHLASSSEDSTTPSAQTQEKTEGPTPIPSLAKPGVTVTFSDFQDSDLIATMMPPISPAPIQSDDDWIPDIQTDPNGLSFNPISDFPDTTSPKCPGRPWKSVSEINPTTQMKESYYFDLTDGLS
- induction of EC apoptosis (in words) [1]: induction of EC apoptosis
- inhibition of angiogenesis induced by bFGF-containing filter discs, vessel counts ([3]; 30 ng bFGF, 10 μg HKa): about 85%
- inhibition of bFGF-induced angiogenesis in the CAM (in words) ([3]; in vivo): inhibited basic FGF-induced angiogenesis; also recorded: antiangiogenic activity
- Kd [4]: ~2.5 nM and ~2.6 nM
- inhibition of bFGF-induced EC proliferation (in words) [5]: inhibition
